This note sets out measurements from patent publication US20130171063A1 (LUDWIG INSTITUTE FOR CANCER RESEARCH, published 2013).

The target of one assay is T1, peptide 23 (N-terminal biotin).
T1 peptide: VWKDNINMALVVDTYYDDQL
Put plainly: ELISA on biotinylated 20-mer c-Met peptides on streptavidin plates, A405 nm. In general terms: In an ELISA, binding on a coated surface is turned into a signal by an enzyme label.

The target of the next assay is T2, peptide 25 (N-terminal biotin).
T2 peptide: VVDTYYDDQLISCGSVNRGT
Described as above.

The target in another assay is T3, peptide 24 (N-terminal biotin).
T3 peptide: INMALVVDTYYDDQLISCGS
Described as above.

In assay [1] the target is T4, purified truncated c-Met fragment designated 25-567H (human, UniProt P08581 25-567).
T4 construct: Produced in transfected CHO-Lec cells; also called c-Met antigen; c-Met Ag
The assay is described as follows: ELISA, plate coated with recombinant truncated c-Met antigen.
Description: Following incubation, the supernatant was removed and the wells washed twice with wash buffer 0.05% Tween20-PBS, this was followed by a 1 hour block at room temperature with 3% FCS/PBS at 230 μl/well. The wells were then washed one with wash buffer (0.05% Tween 2-PBS) and rinsed with PBS. 100 μl of sample (hybridoma supernatant) was then added to each well and the plate incubated at room temperature for 1 hour. This was followed by a 4× wash with wash buffer (0.05% Tween 2-PBS) and rinse with PBS. 100 μl of goat anti-mouse Ig gamma-AP (Sigma A3438), diluted in wash buffer 1:2000 was then added and allowed to incubate at room temperature for 1 hour. Following the incubation, the wells were washed 4× with wash buffer and rinsed with PBS. The reaction was developed with 100 μl of pNPP (1 mg/ml n diethanolamine-HCL buffer pH 9.6) for 10 mins at room temperature. This was followed by stop solution (3.0 M NaOH, 50 μl/well). The OD was measured at 405 nm.

For assay [2], the target named is T5, c-Met receptor as expressed by human tumor cells (total c-Met) (human, UniProt P08581 25-1390).
T5 construct: whole, on cells; also called surface c-Met; HGFR
The assay is described as follows: flow cytometry on A549 cells, PE-conjugated anti-mouse secondary antibody.
Excerpt: The control antibody was a mouse IgG1 isotype matched antibody. An increase in PE signal intensity indicated antibody binding to c-Met.

For another assay, the target named is T6, unprocessed c-Met (p170) (human, UniProt P08581 25-1390).
T6 construct: whole, on cells; Single-chain precursor, not cleaved at the furin site; also called unprocessed form of c-Met; c-Met precursor
Put plainly: immunoprecipitation from A549 cells, western blot with 25H2 under reducing conditions. For orientation: Immunoblotting shows a protein as a band on a membrane.

For assay [3], the target named is T4, purified truncated c-Met fragment …. The assay is described as follows: BIAcore, His6-c-Met 25-567 on Ni-NTA chip, antibody passed over; apparent KD. Background: In SPR one partner is held on a chip, and binding of the other changes the refractive index at the surface.
Excerpt: The LMH antibodies were passed over the chip at varying concentrations in order to determine apparent affinity (KD). Chips were regenerated with EDTA.
For another assay, the target named is T7, peptide 47 (N-terminal biotin).
T7 peptide: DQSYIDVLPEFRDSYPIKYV
Put plainly: ELISA on biotinylated 20-mer c-Met peptides on streptavidin plates, A405 nm, mean ± SEM.

The next assay addresses T8, peptide 48 (N-terminal biotin).
T8 peptide: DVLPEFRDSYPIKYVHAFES
The assay is described as above.

A further assay deals with T9, peptide 46 (N-terminal biotin).
T9 peptide: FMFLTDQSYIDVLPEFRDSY
The description is as above.

T4 sequence (P08581 other isoform, or with tags, fused parts or gaps limits assumed): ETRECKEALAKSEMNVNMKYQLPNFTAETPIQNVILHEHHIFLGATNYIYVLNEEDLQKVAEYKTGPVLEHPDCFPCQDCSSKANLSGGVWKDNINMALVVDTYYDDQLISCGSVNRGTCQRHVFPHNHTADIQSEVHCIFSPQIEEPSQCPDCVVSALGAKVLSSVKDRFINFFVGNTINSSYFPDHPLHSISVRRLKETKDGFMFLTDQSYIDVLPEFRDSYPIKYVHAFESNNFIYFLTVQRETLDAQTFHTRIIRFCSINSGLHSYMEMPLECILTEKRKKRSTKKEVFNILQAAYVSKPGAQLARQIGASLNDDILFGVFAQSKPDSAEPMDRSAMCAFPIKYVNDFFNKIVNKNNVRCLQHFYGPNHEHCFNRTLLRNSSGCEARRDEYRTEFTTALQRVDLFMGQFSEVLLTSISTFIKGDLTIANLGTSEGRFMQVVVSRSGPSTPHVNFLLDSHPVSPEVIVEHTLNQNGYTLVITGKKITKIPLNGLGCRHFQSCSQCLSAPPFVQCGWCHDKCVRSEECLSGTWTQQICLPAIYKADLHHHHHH
T5 sequence (P08581 25-1390): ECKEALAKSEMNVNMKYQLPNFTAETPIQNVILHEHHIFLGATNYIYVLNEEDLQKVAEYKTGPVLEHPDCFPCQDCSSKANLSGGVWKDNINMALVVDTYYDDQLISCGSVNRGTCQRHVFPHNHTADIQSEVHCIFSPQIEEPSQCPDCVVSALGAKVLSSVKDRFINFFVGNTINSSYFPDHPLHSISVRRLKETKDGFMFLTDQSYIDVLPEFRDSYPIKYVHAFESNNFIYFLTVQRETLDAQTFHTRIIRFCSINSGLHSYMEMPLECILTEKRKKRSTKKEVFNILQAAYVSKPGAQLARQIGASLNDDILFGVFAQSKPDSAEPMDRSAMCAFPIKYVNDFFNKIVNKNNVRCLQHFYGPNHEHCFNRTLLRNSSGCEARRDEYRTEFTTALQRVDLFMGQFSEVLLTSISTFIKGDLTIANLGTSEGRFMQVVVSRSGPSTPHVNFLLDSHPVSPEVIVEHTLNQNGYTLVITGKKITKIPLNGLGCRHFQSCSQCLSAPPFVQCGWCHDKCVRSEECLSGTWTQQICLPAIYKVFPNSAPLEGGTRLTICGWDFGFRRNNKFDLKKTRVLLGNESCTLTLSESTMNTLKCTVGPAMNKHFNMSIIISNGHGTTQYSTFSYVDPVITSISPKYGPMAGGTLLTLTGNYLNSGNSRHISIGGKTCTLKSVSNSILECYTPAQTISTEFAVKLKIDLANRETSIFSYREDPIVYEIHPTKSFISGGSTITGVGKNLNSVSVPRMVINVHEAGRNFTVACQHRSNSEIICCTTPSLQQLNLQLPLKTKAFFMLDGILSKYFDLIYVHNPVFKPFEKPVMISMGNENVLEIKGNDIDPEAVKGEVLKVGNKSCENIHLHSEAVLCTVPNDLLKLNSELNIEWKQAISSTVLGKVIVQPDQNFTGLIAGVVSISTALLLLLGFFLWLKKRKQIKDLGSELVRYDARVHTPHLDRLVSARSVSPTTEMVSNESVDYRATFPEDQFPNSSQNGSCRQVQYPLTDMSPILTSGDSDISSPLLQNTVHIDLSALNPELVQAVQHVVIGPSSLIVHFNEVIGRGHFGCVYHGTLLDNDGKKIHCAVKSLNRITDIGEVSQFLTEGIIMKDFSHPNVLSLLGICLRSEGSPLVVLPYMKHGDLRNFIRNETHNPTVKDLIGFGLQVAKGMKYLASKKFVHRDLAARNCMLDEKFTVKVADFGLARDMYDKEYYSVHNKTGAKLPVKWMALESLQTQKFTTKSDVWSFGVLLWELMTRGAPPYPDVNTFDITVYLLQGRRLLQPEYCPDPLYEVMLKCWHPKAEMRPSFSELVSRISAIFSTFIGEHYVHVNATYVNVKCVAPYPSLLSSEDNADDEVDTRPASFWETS
T6 sequence (P08581 25-1390): as above
Description for peptide 23: (§1) The library consisted of N-terminally biotinylated, 20-mer peptides, overlapping by 15 amino acids and pre-absorbed onto 96-well streptavidin coated plates. LMH antibodies 80 to 89 were added to these plates to determine their reactivity against each single peptide using standard ELISA. Epitopes for each antibody were determined by overlaying the sequences of the peptides which reacted with the antibody, leading to a determination of a core common amino acid sequence.
(§2) The peptide sequence bound by each antibody was aligned to determine the core epitope.
Description for peptide 24: as §1, §2
Description for peptide 25: as §1, §2
Description for peptide 46: as §1, §2
Description for peptide 47: as §1, §2
Description for peptide 48: as §1, §2

B1: antibody LMH 82 (antibody, V domains shown)
VH: EVQLQQSGPELVKPGASVKMSCKASGYTFTDYYMKWVKQSHGKNLEWIGDINPNNGGTNYNQKFKGKATLTVDKSSSTAYMQLNSLTSEDSAVYYCARSGYWGQGTTLTVSS
VL: DVLMTQTPLSLPVSLGDQASISCRSSQSILHSNGNTYLEWYLQKPGQSPKLLIYKVSNRFSGVPDRFSGSGSGTDFTLKISRVEAEDLGVYYCFQGSHVPWTFGGGTKLEIK
notes: Mouse monoclonal antibody from a hybridoma; also called hybridoma PTA-11406
Consider B1, for which the binding result in the assay with peptide 23, with peptide 25 and with peptide 24 was “binds” in each case.

B2: antibody LMH 85 (antibody, V domains shown)
VH: QVQLQQSGAELAKPGASVKMSCKASGYTFIIYWIHWIKQRPGQGLEWIGYINPSNDYTEYNQKFKDKATLTADKSSNTAFMQLSSLTSEDSAVYYCARDSYDYDDGAYAMDYWGQGTSVTVSS
VL: QIVLSQSPAILSASPGEKVTMTCRASSGVNYMHWYQQKPGSSPKPWIYATSNLASGVPARFSGSGSGTSYSLTISRVEAEDAATYYCQQWISHPFTFGSGTKLEIK
notes: Mouse monoclonal antibody from a hybridoma
For the molecule B2, the binding result (in assay [1]; in assay [2]; with unprocessed c-Met (p170)) was “binds” throughout.

B3: antibody LMH 87 (antibody, V domains shown)
VH: QVQLQQSGPELVKSGASVKMSCKASGNTLKDDHVHWVKQRPGQGLEWIGWIYPGGGRTRYNEKFKGKTTLTADKPSSTVNMLLSSLTSEDSAIYFCTNLVFDVWGAGTTVTVSS
VL: DIVMTQAAPSVPVTPGESVSISCRSSKSLLHSNGNTYLYWFLQRPGQSPQVLIYRMSNLASGVPDRFSGSGSGTAFTLRIRRVEAEDVGVYYCMQNLEYPFTFGGGTKLEIK
notes: as for B2
Take B3: in assay [3], the Kd was determined as 2.6 nM. The binding result in the assay with peptide 47, in the assay with peptide 48 and in the assay with peptide 46 was “binds” in each case.
